Source: patent EP0951295B1 (THE SCRIPPS RESEARCH INSTITUTE, dated 2010)

Columns and labels:
[1] = target: integrin αvβ3 (vitronectin receptor), purified and immobilized on microtiter wells (UniProt P06756); assay: solid-phase receptor binding assay, 125I-MMP-2 on immobilized αvβ3
[2] = target: integrin αIIbβ3, purified and immobilized on microtiter wells (UniProt P08514); assay: solid-phase receptor binding assay, 125I-MMP-2 on immobilized αIIbβ3
[3] = target: integrin αvβ3 (vitronectin receptor), purified and immobilized on microtiter wells (UniProt P06756); assay: solid-phase competition: peptide against 1 nM 125I-fibrinogen on immobilized αvβ3; mean of duplicates ± SD
[4] = target: integrin αIIbβ3, purified and immobilized on microtiter wells (UniProt P08514); assay: solid-phase competition: peptide against 1 nM 125I-fibrinogen on immobilized αIIbβ3; mean of duplicates ± SD
[5] = target: T1, integrin αvβ3 (vitronectin receptor), purified and immobilized on microtiter wells (UniProt P06756 31-1048; P05106 27-788); assay: solid-phase competition: peptide against fibrinogen (FG) on immobilized αvβ3; individual assay
T1 construct: Purified integrin coated at 50 ng per well; also called αvβ3 receptor; vitronectin receptor (αvβ3)

[6] = target: T1, integrin αvβ3 (vitronectin receptor), …; assay: solid-phase competition: peptide against vitronectin (VN) on immobilized αvβ3; individual assay
[7] = target: T2, integrin αIIbβ3, purified and immobilized on microtiter wells (UniProt P08514 32-1039; P05106 27-788); assay: solid-phase competition: peptide against fibrinogen (FG) on immobilized αIIbβ3; individual assay
T2 construct: Purified integrin coated at 50 ng per well; also called α11bβ3

[8] = target: T2, integrin αIIbβ3, purified and …; assay: solid-phase competition: peptide against vitronectin (VN) on immobilized αIIbβ3; individual assay

IC50 [3]	IC50 [4]	IC50 [5]	IC50 [6]	IC50 [8]	Molecule	also measured
					MMP-2 (matrix metalloproteinase-2) as used in the solid-phase receptor binding assays (enzyme)	bound cpm [1]: 300 cpm; bound cpm [2]: 10 CPM
1050 nM	630 nM				peptide 62175, cyclo(ARGDfL)	
395 nM	55 nM				peptide 62179, cyclo(GRGDfL)	
1960 nM	15000 nM				peptide 62181, cyclo(GrGDFV)	
50 nM	525 nM				peptide 62184, cyclo(RGDfV)	
885 nM	100000 nM				peptide 62185, cyclo(RADfV)	
57400 nM	100000 nM				peptide 62186, cyclo(RaDFV)	
50 nM	260 nM				peptide 62187, cyclo(RGDFv)	
		> 100000 nM	> 100000 nM	5000 nM	TDVNGDGRHDL (Linear synthetic peptide) [peptide 62502, TDVNGDGRHDL (linear, αIIb-derived amino acid residues 296-306)]	IC50 [7]: 90000 nM
		< 100 nM	500 nM	980 nM	YTAECKPQVTRGDVF (Linear synthetic peptide) [peptide 62880, YTAECKPQVTRGDVF (linear, VN-derived amino acid residues 35-49)]	IC50 [7]: 4200 nM
		> 100000 nM	> 100000 nM	> 100000 nM	TRQVVCDLGNPM (Linear synthetic peptide) [peptide 62411, TRQVVCDLGNPM (linear, αv-derived amino acid residues 676-687)]	
		> 100000 nM	> 100000 nM	> 100000 nM	GVVRNNEALARLS (Linear synthetic peptide) [peptide 62503, GVVRNNEALARLS (linear, αv-derived amino acid residues 655-667)]	
